# From patent US7919236 (GIVAUDAN, dated 2011)
# T1: mouse T2R5 bitter receptor (mouse, UniProt Q9JKT4 1-300)
# T1 sequence (looked up): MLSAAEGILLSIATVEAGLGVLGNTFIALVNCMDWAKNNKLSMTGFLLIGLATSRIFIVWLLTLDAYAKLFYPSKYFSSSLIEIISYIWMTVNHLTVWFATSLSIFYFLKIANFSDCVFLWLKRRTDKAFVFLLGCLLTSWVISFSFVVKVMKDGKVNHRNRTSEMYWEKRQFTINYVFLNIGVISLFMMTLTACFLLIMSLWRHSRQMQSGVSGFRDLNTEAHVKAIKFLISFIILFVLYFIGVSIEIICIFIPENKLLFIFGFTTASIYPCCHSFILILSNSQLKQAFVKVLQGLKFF
# Tests used:
# Assay in all cases: cell-based or functional assay
# [1] = target: human TAS2R16 bitter receptor (human) (UniProt Q9NYV7)
# Sequence of human TAS2R16 bitter receptor (human) (Q9NYV7 whole entry): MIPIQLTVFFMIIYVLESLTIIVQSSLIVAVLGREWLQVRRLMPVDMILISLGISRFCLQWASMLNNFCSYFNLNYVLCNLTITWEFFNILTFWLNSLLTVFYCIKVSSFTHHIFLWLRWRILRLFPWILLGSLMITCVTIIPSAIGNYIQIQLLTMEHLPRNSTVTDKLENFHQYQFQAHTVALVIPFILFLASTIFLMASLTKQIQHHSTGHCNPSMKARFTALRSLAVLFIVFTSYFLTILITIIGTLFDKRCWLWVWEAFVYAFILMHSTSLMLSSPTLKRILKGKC
# [2] = target: T1, mouse T2R5 bitter receptor
# [3] = target: human TAS1R2/TAS1R3 sweet taste receptor heterodimer (human) (UniProt Q8TE23)
# Sequence of human TAS1R2/TAS1R3 sweet taste receptor heterodimer (human) (Q8TE23 20-839, chain 1 of 2): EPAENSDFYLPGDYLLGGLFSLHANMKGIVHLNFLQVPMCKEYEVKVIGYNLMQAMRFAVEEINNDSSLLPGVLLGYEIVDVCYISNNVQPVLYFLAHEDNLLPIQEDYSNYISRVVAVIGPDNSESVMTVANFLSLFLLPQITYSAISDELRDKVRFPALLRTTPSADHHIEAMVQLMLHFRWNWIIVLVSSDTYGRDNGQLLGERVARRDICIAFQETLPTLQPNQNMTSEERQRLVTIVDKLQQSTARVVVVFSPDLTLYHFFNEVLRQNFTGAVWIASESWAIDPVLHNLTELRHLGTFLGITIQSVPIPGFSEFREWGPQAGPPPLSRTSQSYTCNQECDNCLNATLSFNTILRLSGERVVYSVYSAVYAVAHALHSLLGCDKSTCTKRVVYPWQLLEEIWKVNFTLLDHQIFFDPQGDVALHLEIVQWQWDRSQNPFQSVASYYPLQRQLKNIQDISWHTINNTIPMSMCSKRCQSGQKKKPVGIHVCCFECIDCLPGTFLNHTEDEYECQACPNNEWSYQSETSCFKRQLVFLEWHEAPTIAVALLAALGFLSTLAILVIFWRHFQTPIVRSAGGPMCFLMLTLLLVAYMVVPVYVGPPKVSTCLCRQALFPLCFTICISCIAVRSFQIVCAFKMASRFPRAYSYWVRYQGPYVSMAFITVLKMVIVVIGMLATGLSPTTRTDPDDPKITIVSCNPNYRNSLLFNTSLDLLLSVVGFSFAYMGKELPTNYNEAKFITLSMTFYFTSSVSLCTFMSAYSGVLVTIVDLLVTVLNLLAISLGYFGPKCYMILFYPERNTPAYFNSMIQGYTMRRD
# Sequence of human TAS1R2/TAS1R3 sweet taste receptor heterodimer (human) (Q7RTX0 21-852, chain 2 of 2, further chain): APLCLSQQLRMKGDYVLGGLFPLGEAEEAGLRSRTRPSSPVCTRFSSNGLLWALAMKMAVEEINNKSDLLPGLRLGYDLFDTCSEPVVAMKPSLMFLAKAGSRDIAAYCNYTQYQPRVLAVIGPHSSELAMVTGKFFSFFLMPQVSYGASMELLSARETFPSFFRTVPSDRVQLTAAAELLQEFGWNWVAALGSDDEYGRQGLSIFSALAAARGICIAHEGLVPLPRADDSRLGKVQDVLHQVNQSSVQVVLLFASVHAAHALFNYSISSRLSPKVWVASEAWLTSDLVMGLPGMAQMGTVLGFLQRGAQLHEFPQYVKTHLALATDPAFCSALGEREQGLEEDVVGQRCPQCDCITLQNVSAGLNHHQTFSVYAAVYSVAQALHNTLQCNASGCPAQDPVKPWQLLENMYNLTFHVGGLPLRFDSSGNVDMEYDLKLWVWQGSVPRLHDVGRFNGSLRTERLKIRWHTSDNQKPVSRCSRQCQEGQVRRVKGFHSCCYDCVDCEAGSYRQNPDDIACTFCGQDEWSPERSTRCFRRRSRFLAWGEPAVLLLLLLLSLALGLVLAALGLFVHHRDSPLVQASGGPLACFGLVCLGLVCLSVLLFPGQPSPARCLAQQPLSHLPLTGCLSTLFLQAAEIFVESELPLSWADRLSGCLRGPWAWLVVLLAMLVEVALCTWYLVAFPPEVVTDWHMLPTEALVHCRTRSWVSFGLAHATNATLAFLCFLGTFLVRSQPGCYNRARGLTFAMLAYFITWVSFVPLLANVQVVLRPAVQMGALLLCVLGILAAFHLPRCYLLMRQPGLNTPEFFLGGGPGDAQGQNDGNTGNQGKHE
# [4] = target: human TAS1R2/TAS1R3 sweet taste receptor heterodimer (human, UniProt Q8TE23 20-839; Q7RTX0 21-852)
# Sequence of human TAS1R2/TAS1R3 sweet taste receptor heterodimer (Q8TE23 20-839, chain 1 of 2): as the sequence (Q8TE23 20-839, chain 1 of 2) above
# Sequence of human TAS1R2/TAS1R3 sweet taste receptor heterodimer (Q7RTX0 21-852, chain 2 of 2): as the sequence (Q7RTX0 21-852, chain 2 of 2, further chain) above
molecule,measurement,setting,value
wild-type Gα16 (from UniProt P30679 1-374),increase in mean Fluo-4 calcium fluorescence over baseline after 5 mM phenyl-β-D-glucopyranoside,[1],3490 RFU
same,increase in mean Fluo-4 calcium fluorescence over baseline after 10 µM cycloheximide,[2],2570 RFU
Gα15,increase in mean Fluo-4 calcium fluorescence over baseline after 2.5 mM sucralose,[3],1300 RFU
Gα16-gustducin44 chimeric G-protein (other) MARSLTWRCCPWCLTEDEKAAARVDQEINRILLEQKKQDRGELKLLLLGPGESGKSTFIKQMRIIHGAGYSEEERKGFRPLVYQNIFVSMRAMIEAMERLQIPFSRPESKHHASLVMSQDPYKVTTFEKRYAAAMQWLWRDAGIRACYERRREFHLLDSAVYYLSHLERITEEGYVPTAQDVLRSRMPTTGINEYCFSVQKTNLRIVDVGGQKSERKKWIHCFENVIALIYLASLSEYDQCLEENNQENRMKESLALFGTILELPWFKSTSVILFLNKTDILEEKIPTSHLATYFPSFQGPKQDAEAAKRFILDMYTRMYTGCVDGPEGSNLKKEDKEIYSHMTCATDTQNVKFVFDAVTDIIIKENLKDCGLF,"fluorescence signal after 2.5 mM aspartame, acesulfame K or sucralose, relative to wild-type Gα16",[4],2 fold vs wild-type Gα16
same,"fluorescence signal after 10 uM cycloheximide, relative to wild-type Gα16",[2],5 fold vs wild-type Gα16
